{
  "source": "patent US20210255174",
  "key": {"[1]": {"tested_on": "Control peptide #112: [5-Fam]TRIDEANQRATK[DABCYL]-Hex"}, "[2]": {"tested_on": "Control peptide #113: [4-Mu]TRIDEANQRATK[DABCYL]-Hex"}},
  "data": [
    {"substance": "Trypsin", "values": [
      {"measurement": "KM", "setting": "[1]", "value": 3.75, "unit": "µM"},
      {"measurement": "KM", "setting": "[2]", "value": 13.3, "unit": "µM"}
    ]}
  ]
}
